# Measurements reported in the supplement of paper PMC9732359.
# ± gives the uncertainty stated by the source.
# Experiment: protein stability index of a GFP-peptide fusion (yeast GPS) (PSI 1-4); higher = more stable; sorted into four equal gates, so the index is relative within each strain
# Method in brief: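 Tiled 17-residue peptides from yeast proteins were fused downstream of GFP on a plasmid that also expresses Cherry, and the pooled library was carried in yeast. Mid-log cultures grown in leucine-free medium were sorted into four equal gates by GFP/Cherry fluorescence ratio. Plasmids from each gate were PCR-amplified and Illumina-sequenced, and reads were assigned to strains by barcodes. Each peptide's protein stability index is the sum, over gates, of the gate's read frequency multiplied by its gate number.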
Sequence,protein stability index (doa10∆),protein stability index (pdr5∆),protein stability index (san1∆),protein stability index (ubr1∆)
DISLKADLERFFLSIYF [YJL039C/NUP192],3.24 ± 0.13,2.79 ± 0.092,2.96 ± 0.099,2.94 ± 0.044
DITGIRDVSDDVFDTLA [GRR1],3.02 ± 0.12,3.04 ± 0.07,2.95 ± 0.075,2.97 ± 0.067
DKDSEELDSKTRKILEI [MED4],2.98 ± 0.093,2.65 ± 0.091,3.11 ± 0.061,2.98 ± 0.064
DKFFNEVNKSELYLTAE [SIR3],3.43 ± 0.13,3.55 ± 0.13,3.23 ± 0.085,3.58 ± 0.12
DKIPLNYAMTRNILHNT [SRB5],1.82 ± 0.057,2.34 ± 0.057,1.83 ± 0.081,1.93 ± 0.035
DKLKVYKQAMNETSEQL [SNF5],3.17 ± 0.11,3.39 ± 0.15,3.13 ± 0.12,3.11 ± 0.11
DKLTRVHDKIWCCRSGS [PRE3],2.78 ± 0.061,2.68 ± 0.068,2.67 ± 0.056,2.9 ± 0.032
DKNELQQMIITRLKSLL [SIR3],2.23 ± 0.058,2.04 ± 0.05,2.12 ± 0.063,2.08 ± 0.037
DKRIVISIDSWPTTHKY [DIS3],1.92 ± 0.065,1.52 ± 0.11,1.99 ± 0.16,2.06 ± 0.087
DKVTSQAVNNLIKTLST [RPP1],2.53 ± 0.059,2.89 ± 0.078,2.47 ± 0.074,2.62 ± 0.048
DLALKMGVPIYGIVAMA [FAS2],1.85 ± 0.27,1.17 ± 0.093,1.36 ± 0.28,1.18 ± 0.078
DLEGRANIFRIHSKSMS [RPT1],,,3.21 ± 0.25,
DLEKLLEMSTEDFVKLA [RPS15],3.11 ± 0.15,3.13 ± 0.12,3.44 ± 0.12,3.28 ± 0.08
DLLRSQLTSLEKDCSLR [YIL149C/MLP2],2.94 ± 0.061,3.05 ± 0.063,2.33 ± 0.077,3.03 ± 0.042
DLQRLKPLGLDRYGNRY [ITC1],,,,3.05 ± 0.13
DLTMGQVGERIKQTFKN [RPO21],3.31 ± 0.15,2.81 ± 0.19,3.25 ± 0.073,3.23 ± 0.11
DLTRVYKAISAQADKQD [FAS2],1.54 ± 0.054,1.72 ± 0.049,1.74 ± 0.1,1.75 ± 0.044
DLVKPKNPKFSNAFYSV [SMC4],2.43 ± 0.062,2.42 ± 0.064,2.26 ± 0.074,2.82 ± 0.067
DLWNNFGNIMDNLLEMS [RRP6],3.42 ± 0.094,2.88 ± 0.076,3.21 ± 0.058,2.95 ± 0.11
DMIKCFLPKLNSVRNSL [NUT1],2.52 ± 0.053,2.48 ± 0.089,2.47 ± 0.075,2.18 ± 0.035
DMLLHKYYIVSSSKSMI [SRB8],1.26 ± 0.074,1.47 ± 0.062,1.7 ± 0.14,1.61 ± 0.079
DMSKILVDQGFNYSGKD [RET1],3.36 ± 0.073,3.31 ± 0.065,3.31 ± 0.04,3.49 ± 0.042
DMVKLDINPPLVFILAV [RRP42],2.69 ± 0.068,2.3 ± 0.043,2.2 ± 0.07,2.19 ± 0.035
DNEDSDNLFGETESSVS [SWI3],3.48 ± 0.14,3.07 ± 0.081,,2.93 ± 0.085
DNETKAMLINLILRDFL [RPN3],2.55 ± 0.095,2.66 ± 0.087,2.58 ± 0.069,2.81 ± 0.075
DNLGQTKIIMATNRPDT [RPT4],2.76 ± 0.084,2.56 ± 0.1,2.79 ± 0.079,2.67 ± 0.079
DNNTASNMLGSNEDVMM [RPB3],2.04 ± 0.25,2.43 ± 0.17,2.31 ± 0.25,

Sequence,protein stability index (doa10∆),protein stability index (pdr5∆),protein stability index (san1∆),protein stability index (ubr1∆)
DNVVRFLNEARDKAGRL [RPO21],2.48 ± 0.063,1.61 ± 0.056,2.56 ± 0.14,1.76 ± 0.053
DPFSIYGFSNKEYISRL [SNF5],1.89 ± 0.066,2.39 ± 0.15,2.69 ± 0.071,2.34 ± 0.075
DPLLAGLGETSGDNHTQ [RPT4],2.77 ± 0.26,3.43 ± 0.21,3.5 ± 0.19,3.25 ± 0.16
DPLRIAMKELAEKKIPL [RPO26],,3.26 ± 0.18,,
DPNNPVDFDGLDIKRVG [SNF12],3.5 ± 0.087,3.32 ± 0.086,3.32 ± 0.097,3.25 ± 0.063
DPSRELNVIIDQLAVSP [YCS4],2.79 ± 0.055,3.04 ± 0.062,2.72 ± 0.053,2.67 ± 0.05
DPTKVTEFEFYLLEELE [SSN8],3.19 ± 0.065,3.28 ± 0.058,3.21 ± 0.068,3.25 ± 0.049
DPVSGAILVPMTVNDQP [YJR042W/NUP85],1.95 ± 0.18,2.03 ± 0.16,2.28 ± 0.087,2.4 ± 0.085
DQAELPNNASSHISASA [SNF2],1.79 ± 0.085,2.35 ± 0.068,2.1 ± 0.13,2.35 ± 0.063
DQAIVTETKRLVVIRFG [DIB1],2 ± 0.071,2.23 ± 0.062,2.03 ± 0.1,2.45 ± 0.067
DQGNGWLYVYETPNQDA [RPN6],2.36 ± 0.061,2.01 ± 0.051,2.23 ± 0.067,2.38 ± 0.037
DQKETKKGESEKDASGK [YOR098C/NUP1],3.45 ± 0.18,3.37 ± 0.15,3.49 ± 0.097,3.37 ± 0.1
DQLLTDLIETSFTCFAQ [NUT1],2.56 ± 0.093,1.9 ± 0.076,1.88 ± 0.11,2.91 ± 0.074
DQYIQKQVQISHHLKAD [YGL172W/NUP49],2.78 ± 0.076,2.71 ± 0.092,2.6 ± 0.072,3.07 ± 0.057
DRAIRKTCQWYSEHLKP [DIS3],3.17 ± 0.089,3.1 ± 0.096,3.01 ± 0.07,3.3 ± 0.12
DRETALDFIGRRGTALG [RPB2],2.23 ± 0.072,2.07 ± 0.065,2.22 ± 0.059,2.14 ± 0.066
DRKDQDDRDHFGKKRLD [RPB2],3.27 ± 0.14,3.04 ± 0.12,3.28 ± 0.13,3.39 ± 0.086
DRKHVAALRTVKSLVDN [RPL9B],,2.83 ± 0.22,2.83 ± 0.14,
DRKKDKNVKHSGNIQLD [RPL12A],3.31 ± 0.12,3.46 ± 0.17,3.38 ± 0.073,3.18 ± 0.096
DRKNRAPPQRPRFNRDN [RPS26B],1.87 ± 0.2,1.4 ± 0.15,,3.04 ± 0.16
DRQCMIMDELLSSIAER [DIB1],2.7 ± 0.066,2.78 ± 0.053,2.88 ± 0.061,2.68 ± 0.052
DRSKLKKGVRVTLDITT [RPT4],,2.87 ± 0.2,2.4 ± 0.089,2.57 ± 0.14
DRSKPVALTSFLGYKAG [RPL3],2.85 ± 0.075,2.89 ± 0.063,3.08 ± 0.06,2.09 ± 0.036
DRVIFRVPIRSEYKVAF [PRP8],2.93 ± 0.069,2.71 ± 0.061,2.55 ± 0.077,2.42 ± 0.034
DRVKVIECFKPGDIVRA [CSL4],2.66 ± 0.13,2.39 ± 0.14,2.1 ± 0.18,2.36 ± 0.16
DSAAIIAATGLNQINGL [GRR1],2.85 ± 0.096,2.83 ± 0.089,2.79 ± 0.083,2.96 ± 0.073
DSADVPAFSNSNGFNNV [YMR153W/NUP53],3.1 ± 0.062,3.2 ± 0.067,3.22 ± 0.041,3.23 ± 0.048
